Experimental data taken from patent WO2014051109A1 (dated 2014).

T1: human mature dimer BMP9 recombinant protein (R&D Systems, Cat#3209-BP) (human, UniProt Q9UK05 320-429)
T1 sequence: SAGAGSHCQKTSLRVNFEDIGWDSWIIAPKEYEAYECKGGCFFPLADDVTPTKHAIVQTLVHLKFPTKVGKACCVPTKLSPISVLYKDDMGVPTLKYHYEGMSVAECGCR

T2: human BMP9 recombinant protein (prepared by the method of Example 12 of WO2010/126169); N-terminal His-type … (human, UniProt Q9UK05 23-319; Q9UK05 320-429)
T2 construct: not shown: N-terminal His tag (His6)
T2 sequence 1: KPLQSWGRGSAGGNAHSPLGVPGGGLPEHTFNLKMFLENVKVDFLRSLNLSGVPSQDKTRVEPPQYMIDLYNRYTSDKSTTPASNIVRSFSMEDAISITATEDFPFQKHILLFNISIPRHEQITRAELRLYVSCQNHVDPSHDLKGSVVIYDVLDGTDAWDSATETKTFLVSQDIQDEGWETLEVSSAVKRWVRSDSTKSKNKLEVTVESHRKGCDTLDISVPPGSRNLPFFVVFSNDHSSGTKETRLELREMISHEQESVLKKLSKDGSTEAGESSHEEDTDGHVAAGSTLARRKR
T2 sequence 2: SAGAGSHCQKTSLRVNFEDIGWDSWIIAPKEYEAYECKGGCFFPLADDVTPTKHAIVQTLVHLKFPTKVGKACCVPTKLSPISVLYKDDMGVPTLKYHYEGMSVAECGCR

T3: human mature dimer BMP10 recombinant protein (R&D Systems, Cat#2926-BP) (human, UniProt O95393 317-424)
T3 construct: Bought protein; also called human BMP10
T3 sequence: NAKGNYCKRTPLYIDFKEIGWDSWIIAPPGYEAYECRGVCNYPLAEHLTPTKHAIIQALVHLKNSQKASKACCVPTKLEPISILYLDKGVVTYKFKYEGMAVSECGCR

T4: human BMP9/10 chimeric protein C (human, UniProt Q9UK05 23-319; Q9UK05 320-429)
T4 construct: also called BMP9/10 chimeric recombinant protein C; pLN1V5_hBMP9/10C product; not shown: His6 tag
T4 chain 1: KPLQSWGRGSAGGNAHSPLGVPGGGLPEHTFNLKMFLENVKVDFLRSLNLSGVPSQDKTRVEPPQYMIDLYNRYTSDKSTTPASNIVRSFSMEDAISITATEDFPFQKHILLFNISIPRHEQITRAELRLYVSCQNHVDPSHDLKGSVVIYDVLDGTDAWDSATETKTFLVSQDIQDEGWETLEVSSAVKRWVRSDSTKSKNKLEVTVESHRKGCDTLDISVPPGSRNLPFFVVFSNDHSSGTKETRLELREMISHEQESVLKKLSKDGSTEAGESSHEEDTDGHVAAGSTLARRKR
T4 chain 2: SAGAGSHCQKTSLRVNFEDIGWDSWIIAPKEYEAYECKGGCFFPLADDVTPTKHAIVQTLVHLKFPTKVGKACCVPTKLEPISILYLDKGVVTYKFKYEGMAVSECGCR


What was measured:
[1] = molecular target: human BMP9 recombinant protein (prepared by the method of Example 12 of WO2010/126169; N-terminal His-type hBMP9 complex, vector pLN1V5_hBMP9) (human) (UniProt Q9UK05); experiment: SPR (BIAcore 2000), antibody captured by anti-mouse IgG on CM5, human BMP9 as analyte, single cycle kinetics
[2] = molecular target: T1, human mature dimer BMP9 recombinant …; experiment: cell-based or functional assay
[3] = molecular target: T2, human BMP9 recombinant protein …; experiment: SPR (BIAcore 2000), ratio of Kd values against the R&D antibody
[4] = molecular target: T3, human mature dimer BMP10 recombinant …; experiment: solid-phase antigen ELISA, biotin-labeled antibody on immobilized BMP10
[5] = molecular target: T4, human BMP9/10 chimeric protein C; experiment: solid-phase antigen ELISA, recombinant 3C7-3-1 antibody 1000 ng/mL on immobilized antigen (3 ug/mL)
[6] = molecular target: T2, human BMP9 recombinant protein …; experiment: SPR (BIAcore 2000), antibody captured by anti-mouse IgG on CM5, human BMP9 as analyte, single cycle kinetics
[7] = molecular target: T1, human mature dimer BMP9 recombinant …; experiment: solid-phase antigen ELISA, biotin-labeled antibody 100 ng/mL on immobilized BMP9

Kd [1]	BMP9-dependent ALK1-derived signal inhibitory activity (luciferase, human ALK1 reporter cells ALK1/p(GCCG)12-Luc/HepG2(38.5), 10 ng/mL BMP9) [2]	binding activity, fold of the R&D antibody [3]	binding result [4]	binding result [5]	Kd [6]	binding result [7]	Molecule
616 pM	–	–	–	–	–	–	R&D antibody (anti-human BMP9 mouse monoclonal antibody, R&D Systems, clone No. 360107)
–	~0.0625 fold of the R&D antibody	23.3 fold	no binding (tested: 100 ng/mL antibody)	binds	26.4 pM	–	3C7-3-1 antibody (antibody, V domains shown, Mouse IgG1, kappa; also called recombinant 3C7-3-1 antibody (mouse IgG1, kappa)) VH: EVQLQQSGPELVKPGASVKISCKASGNSFTGYYMNWMKQSPEKSLEWIGEINPSTGATTYNQKFKAKATLTVDKSSSTAYMQLKSLTSEDFAVYYCTRRAAYYFDYWGQGTTLTVSS VL: QIVLTQSPALMSASPGEKVTMTCSASSSVNYMYWYQQKPRSSPKPWIYLTSNLASGVPARFSGSGSGTSYSLTISSMEAEDAATYYCQQWSSNPRTFGGGTKLEIK
–	–	–	no binding (tested: 100 ng/mL antibody)	–	–	binds	3B7-3-3 antibody (antibody, V domains shown, Mouse monoclonal antibody from a hybridoma (BMP9 KO mouse); also called anti-human BMP9 monoclonal antibody 3B7-3-3) VH: EVQLQQSRPELVKPGASVKISCKASDYSFTDYYMNWVKQSPDKSLEWIGEISPSSGGTTYNQKFKAKATLTVDKSSSTAYMQLKSLTSEDSAVYYCATRGAFYFDYWGQGTALTVSS VL: QIVLTQSPALMSAFPGEKVTMTCSASSSVSYMYWYQQKPRSSPKPWIYLTSNLASGVPTRFSGSGSGTSYSLTISSMEAEDAATYFCQQWSSNPRTFGGGTKLEIK
